Laboratory results as given in patent publication US20220356239A1 (JIANGSU HENGRUI MEDICINE, published 2022).

T1: Human IL-5 amino acid sequence with his tag (rhIL-5-his) (human, UniProt P05113 20-134)
T1 sequence: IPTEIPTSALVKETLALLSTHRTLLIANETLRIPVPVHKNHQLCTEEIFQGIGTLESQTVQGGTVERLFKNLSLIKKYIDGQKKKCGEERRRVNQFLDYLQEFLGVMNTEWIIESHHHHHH

B1: Hu39D10 (antibody, human IgG4 S228P, kappa, V domains shown)
VH: EVQLVESGGGLVQPGGSLRLSCAVSGLSLTSNSVNWIRQAPGKGLEWVGLIWSNGDTDYNSAIKSRFTISRDTSKSTVYLQMNSLRAEDTAVYYCAREYYGYFDYWGQGTLVTVSS
VL: DIQMTQSPSSLSASVGDRVTITCLASEGISSYLAWYQQKPGKAPKLLIYGANSLQTGVPSRFSGSGSATDYTLTISSLQPEDFATYYCQQSYKFPNTFGQGTKVEVKR
B2: h1779-014 (antibody, human IgG1, kappa, V domains shown)
VH: EVQLVQSGAEVKKPGASVKVSCKASGYTFTDYIIHWVKQAPGQGLEWIGYFNPNSGGSNYNENFKRKATMTADKSISTAYLEFSRLRSEDTAVYYCARRIAWDHWYFDFWGQGTMVTVSS
VL: DIQMTQSPSSLSASVGDRVTITCLASEGISNDVAWYQQKPGKSPKLLIYAASRLQDGVPSRFSGSGSGTDFTFTISSLQPEDIATYYCQQGYKTPLTFGQGTKLEIKR
notes: h1779_VH.1D + h1779_VL.1A; IgG1 (YTE) / kappa constant regions
B3: h1780-017 (antibody, human IgG1, kappa, V domains shown)
VH: EVQLVQSGAEVKKPGASVKVSCKASGYTFTEYLIHWVRQAPGQGLEWIGYINPYSGGTVYNEKFKSRATLTVDKSISTAYMEFSRLRSDDTAVYYCARDGGYSDPLDYWGQGTMVTVSS
VL: DTVLTQSPATLSLSPGERATLSCRASEGLTSYMHWYQQKPGQAPRLLIYKASNLASGVPARFSGSGSGTDFTLTISSLEPEDFATYFCQQNWNDPWTFGGGTKVEIKR
B4: h1773-007 (antibody, human IgG1, kappa, V domains shown)
VH: EVQLVESGGGLVQPGGSLKLSCAASGFTISNTYIHWVKQASGKGLEWIGRIDPAVGDTKHGPKFQGRFTISADDSKNTAYLQMNSLKTEDTAVYYCFRYGIYPDHWGQGTLVTVSS
VL: DIQLTQSPSSLSASVGDRVTITCSASSSVNYIYWYQQKPGKSPKPWIYLTATLASGVPSRFSGSGSGTDFTLTISSLQPEDFATYYCQQWNSYPYTFGGGTKVEIKR
B5: h1706-006 (antibody, human IgG1, kappa, V domains shown)
VH: EVQLVESGGGLVQPGGSLRLSCAASGFTFSHYYMAWVRQAPGKGLEWVSSINYEGNSAYYGDSVKGRFTISRDNSKNTLYLQMNSLRAEDTAVYYCATETLRESLDYWGQGTMVTVSS
VL: DIQMTQSPSSVSASVGDRVTITCRASQDIGNYLSWYQQKPGKSPKLLIYSASNLEVGVPSRFSGSGSGTDFTLTISSLQPEDFATYYCLQHKQFPRTFGGGTKVEIKR
B6: h1706-007 (antibody, human IgG1, kappa, V domains shown)
VH: EVQLVESGGGLVQPGGSLRLSCAASGFTFSHYYMAWVRQAPGKGLEWVTSINYEGNSAYYGDSVKGRFTISRDNSKNTLYLQMNSLRAEDTATYYCATETLRESLDYWGQGTMVTVSS
VL: DIQMTQSPSSVSASVGDRVTITCRASQDIGNYLSWYQQKPGKSPKLLIYSASNLEVGVPSRFSGSGSGTDFTLTISSLQPEDFATYYCLQHKQFPRTFGGGTKVEIKR
B7: h1705-007 (antibody, human IgG1, kappa, V domains shown)
VH: EVQLVESGGGLVQPGGSLRLSCAASGFTFSHYYMAWVRQAPGKGLEWVSSISYEGDITYYGDSVKGRFTISRDNSKNTLYLQMNSLRAEDTAVYYCASQTLRESFDYWGQGTLVTVSS
VL: DIQMTQSPSSVSASVGDRVTITCRASQDIANYLSWYQQKPGKSPKLLIYGTSNLEVGVPSRFSGSRSGTDFTLTISSLQPEDFATYYCLQDKEFPRTFGGGTKVEIKR
B8: h1706-004 (antibody, human IgG1, kappa, V domains shown)
VH: EVQLVESGGGLVQPGGSLRLSCAASGFTFSHYYMAWVRQAPGKGLEWVTSINYEGNSAYYGDSVKGRFTISRDNSKNTLYLQMNSLRAEDTATYYCATETLRESLDYWGQGTMVTVSS
VL: DIQMTQSPSSVSASVGDRVTITCRASQDIGNYLSWYQQKPGKAPKLLIYSASNLEVGVPSRFSGSGSGTDFTLTISSLQPEDFATYYCLQHKQFPRTFGGGTKVEIKR
B9: h1705-004 (antibody, human IgG1, kappa, V domains shown)
VH: EVQLVESGGGLVQPGGSLRLSCAASGFTFSHYYMAWVRQAPGKGLEWVSSISYEGDITYYGDSVKGRFTISRDNSKNTLYLQMNSLRAEDTAVYYCASQTLRESFDYWGQGTLVTVSS
VL: DIQMTQSPSSVSASVGDRVTITCRASQDIANYLSWYQQKPGKAPKLLIYGTSNLEVGVPSRFSGSGSGTDFTLTISSLQPEDFATYYCLQDKEFPRTFGGGTKVEIKR
B10: h1705-010 (antibody, human IgG1, kappa, V domains shown)
VH: EVQLVESGGGLVQPGGSLRLSCAASGFTFSHYYMAWVRQAPGKGLEWVSSISYEGDITYYGDSVKGRFTISRDNSKNTLYLQMNSLRAEDTAVYYCASQTLRESFDYWGQGTLVTVSS
VL: DIQMTQSPSSVSASVGDRVTITCRASQDIANYLSWYQQKPGKSPKLVIYGTSNLEVGVPSRFSGSRSGSDYTLTISSLQPEDFATYFCLQDKEFPRTFGGGTKVEIKR
B11: h1705-008 (antibody, human IgG1, kappa, V domains shown)
VH: EVQLVESGGGLVQPGGSLRLSCAASGFTFSHYYMAWVRQAPGKGLEWVTSISYEGDITYYGDSVKGRFTISRDNSKNTLYLQMNSLRAEDTATYYCASQTLRESFDYWGQGTLVTVSS
VL: DIQMTQSPSSVSASVGDRVTITCRASQDIANYLSWYQQKPGKSPKLLIYGTSNLEVGVPSRFSGSRSGTDFTLTISSLQPEDFATYYCLQDKEFPRTFGGGTKVEIKR
B12: h1706-003 (antibody, human IgG1, kappa, V domains shown)
VH: EVQLVESGGGLVQPGGSLRLSCAASGFTFSHYYMAWVRQAPGKGLEWVSSINYEGNSAYYGDSVKGRFTISRDNSKNTLYLQMNSLRAEDTAVYYCATETLRESLDYWGQGTMVTVSS
VL: DIQMTQSPSSVSASVGDRVTITCRASQDIGNYLSWYQQKPGKAPKLLIYSASNLEVGVPSRFSGSGSGTDFTLTISSLQPEDFATYYCLQHKQFPRTFGGGTKVEIKR
B13: h1706-009 (antibody, human IgG1, kappa, V domains shown)
VH: EVQLVESGGGLVQPGGSLRLSCAASGFTFSHYYMAWVRQAPGKGLEWVSSINYEGNSAYYGDSVKGRFTISRDNSKNTLYLQMNSLRAEDTAVYYCATETLRESLDYWGQGTMVTVSS
VL: DIQMTQSPSSVSASVGDRVTITCRASQDIGNYLSWYQQKPGKSPKLMIYSASNLEVGVPSRFSGSGSGTDYTLTISSLQPEDFATYFCLQHKQFPRTFGGGTKVEIKR
B14: h1705-011 (antibody, human IgG1, kappa, V domains shown)
VH: EVQLVESGGGLVQPGGSLRLSCAASGFTFSHYYMAWVRQAPGKGLEWVTSISYEGDITYYGDSVKGRFTISRDNSKNTLYLQMNSLRAEDTATYYCASQTLRESFDYWGQGTLVTVSS
VL: DIQMTQSPSSVSASVGDRVTITCRASQDIANYLSWYQQKPGKSPKLVIYGTSNLEVGVPSRFSGSRSGSDYTLTISSLQPEDFATYFCLQDKEFPRTFGGGTKVEIKR
B15: h1705-005 (antibody, human IgG1, kappa, V domains shown)
VH: EVQLVESGGGLVQPGGSLRLSCAASGFTFSHYYMAWVRQAPGKGLEWVTSISYEGDITYYGDSVKGRFTISRDNSKNTLYLQMNSLRAEDTATYYCASQTLRESFDYWGQGTLVTVSS
VL: DIQMTQSPSSVSASVGDRVTITCRASQDIANYLSWYQQKPGKAPKLLIYGTSNLEVGVPSRFSGSGSGTDFTLTISSLQPEDFATYYCLQDKEFPRTFGGGTKVEIKR

Legend:
[1] = biological target: T1, Human IL-5 amino acid sequence with his …; assay: cell-based or functional assay
[2] = biological target: T1, Human IL-5 amino acid sequence with his …; assay: cell-based or functional assay; remark: listed apart in the source
[3] = biological target: T1, Human IL-5 amino acid sequence with his …; assay: FACS blocking of biotin-IL-5 binding to IL-5Rα/β CHO-S cells
Protocol: Particular method: CHO-S-IL-5Rα and β were cultivated with CD-CHO containing […] and 25 ng/ml zeozin, and the concentration during cell culture was no more than 3×10⁶ cells/ml. The IL-5Rα/β-CHOS cells in good condition were centrifuged (1000 rpm, 5 min), washed once with 10% FBS in PBS, counted, the cell concentration was adjusted to 4×10⁶ cells/ml, and 25 μl of which was added to 96-well plate with round bottom. Antibodies to be tested were diluted with PBS solution containing 10% FBS, with an initial concentration of 200 μg/ml, and 8 gradients were obtained by 1:10 dilution. 25 μl of 100 ng/ml IL-5 labeled with Biotin Labeling Kit (Dojindo Chemical, LK03), was uniformly mixed with 50 μl of each diluted antibody, added into the 96-well plate to which the cells has been added, and incubated at 4° C. for 1 hour. After the incubation, centrifuged at 4° C. (400 g, 5 min), the supernatant was discarded, centrifuged and washed with 200 μl of pre-cooled PBS, repeat twice; PE-Avidin secondary antibody diluted at 1:1333 was added and incubated in darkness at […] for 40 min, the supernatant was discarded after being centrifuged at 4° C. […] The plate was read on instrument, and IC50 values for IL-5 antibodies to block the binding between IL-5 and IL-5Rα/β were calculated based on the fluorescence signal values.

[4] = biological target: T1, Human IL-5 amino acid sequence with his …; assay: Biacore T200 SPR, antibody captured on Protein A chip, antigen in flow, 1:1 Langmuir fit
Protocol: The affinity between the test humanized IL-5 antibodies and human IL-5 was determined by using Biacore T200 (GE) instrument.
Molecules to be tested were affinity-captured by Protein A biosensor chip, and then the antigen (prepared in Example 1) was flowed through the surface of the chip, and the reaction signals were detected in real time by using Biacore T200 instrument to obtain binding and dissociation curves. After the dissociation of each cycle of experiment was completed, the biosensor chip was washed and regenerated with glycine-hydrochloric acid regeneration solution (pH 1.5). The data was fitted to the (1:1) Langmuir model by using BIAevaluation version 4.1 GE software, and the affinity values were obtained as shown in Table 14.

Row | Binder | IC50 of inhibition of IL-5-induced proliferation of TF1 cells [1] | IC50 of blocking IL-5-induced eosinophil adhesion [2] | IC50 [3] | Kd [4]
1 | B1 | 0.3 nM | 0.0118 µg/mL |  | 
2 | B2 | 0.2 nM |  | 0.0496 µg/mL | 0.412 nM
3 | B3 | 0.16 nM | 0.0212 µg/mL |  | 
4 | B4 | 0.38 nM |  |  | 
5 | B5 | 0.34 nM |  |  | 
6 | B6 | 0.28 nM |  |  | 
7 | B7 | 0.25 nM |  |  | 
8 | B8 | 0.3 nM |  |  | 
9 | B9 | 0.3 nM |  |  | 
10 | B10 | 0.3 nM |  |  | 
11 | B11 | 0.2 nM | 0.00485 µg/mL |  | 
12 | B12 | 0.31 nM |  |  | 
13 | B13 | 0.25 nM | 0.0043 µg/mL |  | 
14 | B14 | 0.28 nM |  |  | 
15 | B15 | 0.3 nM |  |  | 
